Numbering of substitutions follows the chain as printed. Names may count otherwise. Where two headings read alike, the source gives them in different places.
B1: 030 (bispecific antibody, human IgG1, kappa, lambda, L234A L235A)
heavy 1: not shown
light 1: not shown
heavy 2: not shown
light 2: QAVVTQEPSLTVSPGGTVTLTCRSSTGAVTTSNYANWVQQKPGQAPRGLIGGTNKRAPGVPARFSGSLLGDKAALTLLGAQPEDEAEYYCALWYSNLWVFGQGTKLTVLGQPKAAPSVTLFPPSSEELQANKATLVCLISDFYPGAVTVAWKADSSPVKAGVETTTPSKQSNNKYAASSYLSLTPEQWKSHRSYSCQVTHEGSTVEKTVAPTECS
notes: 1+1, IgG1 LALA knob-into-hole; also called CLDN18.2xCD3 bispecific antibody 030; HB37A6 x HzSP34.24
B2: 032 (bispecific antibody, human IgG1, kappa, lambda, L234A L235A)
heavy 1: not shown
light 1: not shown
heavy 2: not shown
light 2: B1 light 2
notes: 1+1, IgG1 LALA knob-into-hole; also called CLDN18.2xCD3 bispecific antibody 032; HB37A6 x HzSP34.87
B3: 033 (bispecific antibody, human IgG1, kappa, lambda, L234A L235A)
heavy 1: not shown
light 1: not shown
heavy 2: not shown
light 2: B1 light 2
notes: 1+1, IgG1 LALA knob-into-hole; also called CLDN18.2xCD3 bispecific antibody 033; HB37A6 x HzSP34.97
B4: hzsp34.95 (antibody, human IgG1, lambda, L234A L235A, V domains shown)
VH: EVQLVESGGGLVQPGGSLKLSCAASGFTFSGSAMNWVRQASGKGLEWVGRIRSKYNNYATYYADSVKDRFTISRDDSKSTLYLQMNSLKTEDTAVYYCARHGNFGQSYVSWFAYWGQGTTVTVSS
VL: QAVVTQEPSLTVSPGGTVTLTCRSSTGAVTTSNYANWVQQKPGQAPRGLIGGTNKRAPGVPARFSGSLLGDKAALTLLGAQPEDEAEYYCALWYSNLWVFGQGTKLTVLG
notes: CDR mutant of hzsp34.24; IgG1 L234A L235A, lambda
B5: hzsp34.116 (antibody, human IgG1, lambda, L234A L235A, V domains shown)
VH: B4 VH with S30N, G31T, S32Y
VL: B4 VL with K55S, N96D
notes: as for B4
B6: hzsp34.97 (antibody, human IgG1, lambda, L234A L235A, V domains shown)
VH: B4 VH with S30N, G31T, S32Y, Y55A, N56G, N57G
VL: B4 VL
notes: as for B4
B7: hzsp34.96 (antibody, human IgG1, lambda, L234A L235A, V domains shown)
VH: B4 VH with S30N, G31T, S32Y, R52S, S53L
VL: B4 VL
notes: as for B4
B8: sp34 (antibody, human IgG1, lambda, L234A L235A, V domains shown)
VH: EVQLVESGGGLVQPKGSLKLSCAASGFTFNTYAMNWVRQAPGKGLEWVARIRSKYNNYATYYADSVKDRFTISRDDSQSILYLQMNNLKTEDTAMYYCVRHGNFGNSYVSWFAYWGQGTLVTVSS
VL: QAVVTQESALTTSPGETVTLTCRSSTGAVTTSNYANWVQEKPDHLFTGLIGGTNKRAPGVPARFSGSLIGDKAALTITGAQTEDEAIYFCALWYSNLWVFGGGTKLTVLG
notes: mouse variable regions on human IgG1 L234A L235A and lambda constant regions; also called chimeric antibody sp34; mouse sp34

Legend:
[1] = target: T1, human CLDN18.2 on tumor cells (NUGC-4; DAN-G-hCLDN18.2) (human, UniProt P56856-2 1-261); assay: cell-based or functional assay
T1 sequence (looked up): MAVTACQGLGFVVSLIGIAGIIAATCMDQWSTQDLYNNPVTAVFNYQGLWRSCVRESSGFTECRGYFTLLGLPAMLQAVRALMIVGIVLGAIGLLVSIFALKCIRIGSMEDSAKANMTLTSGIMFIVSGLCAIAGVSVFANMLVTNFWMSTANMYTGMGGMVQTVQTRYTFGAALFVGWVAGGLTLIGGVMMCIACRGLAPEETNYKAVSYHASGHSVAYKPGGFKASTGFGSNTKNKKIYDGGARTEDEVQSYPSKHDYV

[2] = target: T2, human Claudin 18.2 (GenScrip, P50251802) (human, UniProt P56856-2 1-261, limits assumed); assay: SPR, antigen on chip
T2 construct: bought antigen coupled to the chip; also called human CLDN18.2; CLDN18.2
T2 sequence (looked up): T1 sequence (looked up)
Description: The equilibrium dissociation constant (KD) of binding to human CLDN18.2 was determined by surface plasma resonance (SPR). […] After coupling, 1 M ethanolamine was injected to block the remaining activation sites. According to the manufacturer's instructions, the binding and dissociation between the chip surface antigen and various bispecific antibodies in the mobile phase were detected by Biacore (GE Healthcare, T200) to obtain the affinity and kinetic constants. The antibody after serial dilution (0-100 nM, twice dilution) flowed through the chip surface in order from low concentration to high concentration, with binding time of 180 s and dissociation time of 600 s. Finally, 10 mM Glycine pH 1.5 (GE Healthcare, BR-1003-54) was used to regenerate the chip. The resulting data were analyzed using the Biacore T200 analysis software and the 1:1 combination model.

[3] = target: T3, human CD3 E&D complex protein (Sino Biological Inc., CT026H0323H) (human, UniProt P07766 23-126; P04234 22-105); assay: BLI, antibody on sensor
T3 construct: bought heterodimer; also called human CD3 protein (CT026H0323H)
T3 sequence (P07766 23-126, chain 1 of 2): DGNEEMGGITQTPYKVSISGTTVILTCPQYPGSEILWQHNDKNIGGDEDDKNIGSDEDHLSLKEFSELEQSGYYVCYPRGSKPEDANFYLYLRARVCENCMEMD
T3 sequence (P04234 22-105, chain 2 of 2): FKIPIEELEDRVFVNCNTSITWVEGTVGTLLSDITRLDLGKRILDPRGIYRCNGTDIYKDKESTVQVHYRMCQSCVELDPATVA
Description: The equilibrium dissociation constant (KD) of the bispecific antibody of the invention binding to human CD3 protein was determined by the Biolayer Interferometry (BLI). The affinity determination of BLI method was carried out according to the existing methods (Estep, P et al., High throughput solution based measurement of antibody-antigen affinity and affinity binding. MAbs, 2013.5 (2): 270-8).
An appropriate number of AHC (18-5060, Fortebio) sensors was taken and soaked in SD buffer (1×PBS, BSA 0.1%, Tween-20 0.05%) according to the number of samples at half an hour before the experiment. 100 μl of SD buffer, each bispecific antibody and human CD3 protein (CT026H0323H, Sino Biological Inc.) were added into 96-well black polystyrene semi-quantitative micro-well plate (Greiner, 675076). Fortebio Octet Red96 was used for detection, and the sensor position was selected according to the sample position. The setting parameters of the instrument were as follows: operation steps: Baseline, Loading-1 nm, Baseline, Association and Dissociation; the operation time of each step depended on the speed of sample combination and dissociation. The rotational speed was 1000 rpm and the temperature was 30° C. ForteBio Octet analysis software was used to analyze KD value.

[4] = target: T3, human CD3 E&D complex protein (Sino …); assay: BLI, antibody on sensor; remark: listed apart in the source
[5] = target: T4, human CD3E&G complex (Sino Biological Inc., CT041-H0305H) (human, UniProt P07766 23-126; P09693 23-116); assay: BLI, antibody on sensor
T4 construct: bought heterodimer; also called human CD3E&G antigen
T4 sequence (P07766 23-126, chain 1 of 2): as the sequence (P07766 23-126, chain 1 of 2) above
T4 sequence (P09693 23-116, chain 2 of 2): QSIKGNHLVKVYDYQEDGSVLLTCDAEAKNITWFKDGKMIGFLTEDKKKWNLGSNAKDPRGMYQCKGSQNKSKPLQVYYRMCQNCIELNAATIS

[6] = target: T5, human CD3 complex on Jurkat cells (human, UniProt P07766 23-207; P04234 22-171; P09693 23-182); assay: flow cytometry on Jurkat cells (human CD3 complex), method of Example 3.2
T5 construct: whole, on cells; natural CD3 complex of Jurkat T cells (also used here for CD3 on T cells of human PBMC); also called human CD3 at the cell level; CD3 on T cells
T5 sequence (P07766 23-207, chain 1 of 3): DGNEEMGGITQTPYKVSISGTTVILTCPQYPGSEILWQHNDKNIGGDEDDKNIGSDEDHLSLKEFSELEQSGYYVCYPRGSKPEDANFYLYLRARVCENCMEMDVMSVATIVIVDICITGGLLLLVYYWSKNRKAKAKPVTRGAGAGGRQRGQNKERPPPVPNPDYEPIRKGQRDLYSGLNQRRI
T5 sequence (P04234 22-171, chain 2 of 3): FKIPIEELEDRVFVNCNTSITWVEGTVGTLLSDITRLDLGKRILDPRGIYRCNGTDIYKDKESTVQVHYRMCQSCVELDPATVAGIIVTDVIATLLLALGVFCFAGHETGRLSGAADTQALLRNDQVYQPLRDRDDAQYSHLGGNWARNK
T5 sequence (P09693 23-182, chain 3 of 3): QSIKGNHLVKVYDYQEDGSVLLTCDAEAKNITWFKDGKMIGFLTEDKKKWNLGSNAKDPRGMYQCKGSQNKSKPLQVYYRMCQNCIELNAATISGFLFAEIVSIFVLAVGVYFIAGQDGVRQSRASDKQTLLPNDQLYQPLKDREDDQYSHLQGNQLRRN
Description: (§1) Jurkat cells are immortalized human T lymphocytes, which express human CD3 complex. The cell line is used to detect the binding of the antibody to the cell. The detailed operation was as follows: Jurkat cells (Promega, J1621) was inoculated into U-shaped 96-well plate, 2×10⁵ for each well. The antibodies to be detected at a series of concentration gradients (the initial concentration of antibody molecule is 500 nM, 3 folds serial dilution) was added into the corresponding cell well, incubated at 4° C. for 30 minutes, and then PBS was used to wash out the unbound part. The sheep anti-human Fc PE fluorescent second antibody (Southern Biotech, J2815-5H87B) was added, then incubated at 4° C. for 15 minutes. and detected by flow cytometry ([…] BD). […] Some of these antibodies were selected to make a further binding curve at cell level.

[7] = target: T5, human CD3 complex on Jurkat cells; assay: flow cytometry on Jurkat cells (human CD3 complex), 'Jurkat cell line binding', method of Example 3.2
Description: as §1

[8] = target: T3, human CD3 E&D complex protein (Sino …); assay: BLI, antibody on sensor; remark: listed apart in the source
[9] = target: T6, cynomolgus monkey CD3 E&D complex protein (Sino Biological Inc., CT032-00323H) (cynomolgus monkey, UniProt Q95LI5 22-117; Q95LI8 22-105); assay: BLI, antibody on sensor
T6 construct: bought heterodimer
T6 sequence (Q95LI5 22-117, chain 1 of 2): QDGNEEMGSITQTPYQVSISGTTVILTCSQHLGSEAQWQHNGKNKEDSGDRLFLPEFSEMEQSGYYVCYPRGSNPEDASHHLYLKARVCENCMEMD
T6 sequence (Q95LI8 22-105, chain 2 of 2): as the sequence (P04234 22-105, chain 2 of 2) above, with I5V, N15K, I20V, S32T, D33N, I34N, T64A, S74N, V83L counted along it

[10] = target: T5, human CD3 complex on Jurkat cells; assay: flow cytometry on Jurkat cells (human CD3 complex), 'Jurkat cell line binding', Example 3.2 [cont) D]
Description: as §1

Row | Binder | Kd [2] | Kd [3] | koff [3] | kon [3] | Kd [4] | koff [4] | kon [4] | Kd [5] | koff [5] | kon [5] | EC50 (read off the curve) [7] | also measured
1 | B1 | 0.576 nM | 7.46 nM | 0.00516 s⁻¹ | 693000 M⁻¹ s⁻¹ | – | – | – | – | – | – | – | EC50 of killing of DAN-G-hCLDN18.2 cells by PBMC [1]: < 0.1 pM; EC50 of killing of NUGC-4 cells by PBMC [1]: < 0.001 nM; koff [2]: 0.0002 s⁻¹; kon [2]: 347000 M⁻¹ s⁻¹
2 | B2 | 0.57 nM | 89.1 nM | 0.0718 s⁻¹ | 807000 M⁻¹ s⁻¹ | – | – | – | – | – | – | – | EC50 of killing of DAN-G-hCLDN18.2 cells by PBMC [1]: < 0.1 pM; EC50 of killing of NUGC-4 cells by PBMC [1]: < 0.001 nM
3 | B3 | 0.57 nM | 446 nM | 0.169 s⁻¹ | 379000 M⁻¹ s⁻¹ | – | – | – | – | – | – | – | –
4 | B4 | – | – | – | – | – | – | – | – | – | – | – | binding result [4]: no binding; binding result [5]: no binding; binding result [6]: no binding (tested: 900 (no unit printed on the sheet))
5 | B5 | – | – | – | – | 4.11 nM | 0.000914 s⁻¹ | 223000 M⁻¹ s⁻¹ | 16 nM | 0.00286 s⁻¹ | 179000 M⁻¹ s⁻¹ | ~4 nM | –
6 | B6 | – | – | – | – | 5.62 nM | 0.00156 s⁻¹ | 278000 M⁻¹ s⁻¹ | 11 nM | 0.00148 s⁻¹ | 135000 M⁻¹ s⁻¹ | ~2 nM | –
7 | B7 | – | – | – | – | – | – | – | – | – | – | – | binding result [4]: no binding; binding result [5]: no binding; binding result [6]: no binding (tested: 900 (no unit printed on the sheet))
8 | B8 | – | – | – | – | 0.638 nM | 0.000157 s⁻¹ | 246000 M⁻¹ s⁻¹ | 6.22 nM | 0.00149 s⁻¹ | 240000 M⁻¹ s⁻¹ | ~0.5 nM | Kd [8]: 0.932 nM; koff [8]: 0.0019 s⁻¹; kon [8]: 2.04e+06 M⁻¹ s⁻¹; Kd [9]: 0.646 nM; koff [9]: 0.000795 s⁻¹; kon [9]: 1.23e+06 M⁻¹ s⁻¹; EC50 [10]: 2 nM

Source: patent US20230374132A1 (Innovent, published 2023)
